We go through one substance from patent publication US20210269790A1.

The experiment deals with FKBP12-Gag^HIV fusion protein (FKBP12 domain added to the N-terminal of Gag of HIV) (human immunodeficiency virus (HIV)). The experiment can be described thus: cell-based or functional assay. The conditions noted are these: scale: times.

As to “luciferase protein fused with an FRB domain (FRB-Luc) (from UniProt P42345 2021-2113)”, the luciferase activity in HEK293T cells 16 hours after introduction of VLPs came to 12.
